Test results published in patent publication US20240115744A1, “FIBRIN-BINDING COMPOUNDS FOR IMAGING AND TREATMENT” (Collagen Medical, LLC, priority 2019, published 2024).
One block for each molecule: values may come before it. *1 amine or outer side, *2 acyl side, *3 side chain or, on linkers, in order; H or OH if unused. Where a SMILES comes first, the peptide text is derived from it. Bridges are numbered along the chain shown (N, C = ends). [ ]: non-standard residue; d: D form. The star is where a group is joined. NODAGA = O=C(O)CN1CCN(CC(=O)O)CCN(C(CCC(=O)*)C(=O)O)CC1; Tyr(3-Cl) = N[C@@H](Cc1ccc(O)c(Cl)c1)C(=O)O; Nicotinoyl(6-F) = O=C(c1ccc(F)nc1)*; X1 = O=C([C@@H]1CC(O)CN1[*:1])[*:2]; Hyp = O=C(O)[C@@H]1C[C@@H](O)CN1

What was measured:
[1] = Blood analysis in rat model of carotid artery crush injury (blood clearance); format: in vivo; details: relative to the other compounds compared
Method: Rat carotid endothelial injury model in vivo studies were conducted, wherein the common carotid artery is isolated and crushed briefly with a hemostat, resulting in mural thrombus formation at the site of the crush. The vessel wall fibrin is then imaged with our PET compounds. All six compounds were evaluated in this model.
Adult male Wistar rats were anesthetized by isoflurane (1-2% in medical air). Body temperature was maintained at 37° C. using a thermo-regulated heating pad. The right femoral vein and artery were cannulated for compound injection and blood sampling, respectively. Endothelial injury was induced by crush injury to the right common carotid artery (1-2 cm proximal to the carotid bifurcation) by clamping the vessel with a hemostat for 5 minutes. Immediately following the surgical procedures, rats were placed in a micro-PET/CT scanner. Compound (200-600 μL) was injected, PET-CT images were acquired, and blood samples were drawn from the femoral artery prior to compound injection and at 2, 5, 10, 15, 30, 60, 90, 120 min post injection. Tissues were harvested at the end for ex vivo analyses.
Blood samples were drawn from prior to probe injection and at 2, 5, 10, 15, 30, 60, 90, 120 min post injection. Each blood sample was weighed and counted using a gamma-counter. The activity in each sample was calculated as percent injected dose (% ID) per gram of tissue.

[2] = target: soluble fibrin fragment DD(E); assay: fluorescence polarization, displacement of the TRITC peptide from DD(E)
[3] = target: soluble fibrin fragment DD(E); assay: fluorescence polarization DD(E) assay

Molecule: CC[C@H](C)[C@H](NC(=O)[C@H](Cc1cnc[nH]1)NC(=O)[C@@H]1CSSC[C@H](NC(=O)[C@@H](CCC(=O)O)NC(=O)[C@@H](Cc2ccc(O)cc2)NC(=O)CCC(C(=O)O)N2CCN(CC(=O)O)CCN(CC(=O)O)CC2)C(=O)N2CC(O)C[C@H]2C(=O)N[C@@H](Cc2ccc(O)c(Cl)c2)C(=O)NCC(=O)N[C@@H](CC(C)C)C(=O)N1)C(=O)N[C@@H](CCC(N)=O)C(N)=O (some centres unmarked) [Compound ^68Ga-19, metal not drawn] ({NODAGA}-[dY][dE]C[X1][Tyr(3-Cl)]GLCHIQ-NH2; disulfide 3-8)
blood clearance ([1]; rat carotid artery crush injury, 2-120 min post injection): faster blood clearance
metabolic stability ([1]; rat): better metabolic stability

B1: Compound 12 (peptide)
peptide: {Nicotinoyl(6-F)}-Y[dE]C[Hyp][Tyr(3-Cl)]DLCYIQ-NH2
modifications: disulfide 3-8
SMILES: CC[C@H](C)[C@H](NC(=O)[C@H](Cc1ccc(O)cc1)NC(=O)[C@@H]1CSSC[C@H](NC(=O)[C@@H](CCC(=O)O)NC(=O)[C@H](Cc2ccc(O)cc2)NC(=O)c2ccc(F)nc2)C(=O)N2C[C@H](O)C[C@H]2C(=O)N[C@@H](Cc2ccc(O)c(Cl)c2)C(=O)N[C@@H](CC(=O)O)C(=O)N[C@@H](CC(C)C)C(=O)N1)C(=O)N[C@@H](CCC(N)=O)C(N)=O
Ki [2]: 1200 nM

B2: Compound 9 (peptide)
peptide: {Nicotinoyl(6-F)}-[dY][dE]C[Hyp][Tyr(3-Cl)]GLCYI[dL]-NH2
modifications: disulfide 3-8
SMILES: CC[C@H](C)[C@H](NC(=O)[C@H](Cc1ccc(O)cc1)NC(=O)[C@@H]1CSSC[C@H](NC(=O)[C@@H](CCC(=O)O)NC(=O)[C@@H](Cc2ccc(O)cc2)NC(=O)c2ccc(F)nc2)C(=O)N2C[C@H](O)C[C@H]2C(=O)N[C@@H](Cc2ccc(O)c(Cl)c2)C(=O)NCC(=O)N[C@@H](CC(C)C)C(=O)N1)C(=O)N[C@H](CC(C)C)C(N)=O
Ki [2]: 730 nM

B3: Compound 11 (peptide)
peptide: {Nicotinoyl(6-F)}-[dY][dE]C[Hyp][Tyr(3-Cl)]GLCYI[dQ]-NH2
modifications: disulfide 3-8
SMILES: CC[C@H](C)[C@H](NC(=O)[C@H](Cc1ccc(O)cc1)NC(=O)[C@@H]1CSSC[C@H](NC(=O)[C@@H](CCC(=O)O)NC(=O)[C@@H](Cc2ccc(O)cc2)NC(=O)c2ccc(F)nc2)C(=O)N2C[C@H](O)C[C@H]2C(=O)N[C@@H](Cc2ccc(O)c(Cl)c2)C(=O)NCC(=O)N[C@@H](CC(C)C)C(=O)N1)C(=O)N[C@H](CCC(N)=O)C(N)=O
Ki [2]: 1010 nM

B4: Compound 14 (peptide)
peptide: {Nicotinoyl(6-F)}-Y[dE]C[Hyp][Tyr(3-Cl)][dD]LCYIQ-NH2
modifications: disulfide 3-8
SMILES: CC[C@H](C)[C@H](NC(=O)[C@H](Cc1ccc(O)cc1)NC(=O)[C@@H]1CSSC[C@H](NC(=O)[C@@H](CCC(=O)O)NC(=O)[C@H](Cc2ccc(O)cc2)NC(=O)c2ccc(F)nc2)C(=O)N2C[C@H](O)C[C@H]2C(=O)N[C@@H](Cc2ccc(O)c(Cl)c2)C(=O)N[C@H](CC(=O)O)C(=O)N[C@@H](CC(C)C)C(=O)N1)C(=O)N[C@@H](CCC(N)=O)C(N)=O
Ki [2]: 2760 nM

B7: Compound 8 (peptide)
peptide: {Nicotinoyl(6-F)}-Y[dE]C[Hyp][Tyr(3-Cl)]GLCHI[dL]-NH2
modifications: disulfide 3-8
SMILES: CC[C@H](C)[C@H](NC(=O)[C@H](Cc1c[nH]cn1)NC(=O)[C@@H]1CSSC[C@H](NC(=O)[C@@H](CCC(=O)O)NC(=O)[C@H](Cc2ccc(O)cc2)NC(=O)c2ccc(F)nc2)C(=O)N2C[C@H](O)C[C@H]2C(=O)N[C@@H](Cc2ccc(O)c(Cl)c2)C(=O)NCC(=O)N[C@@H](CC(C)C)C(=O)N1)C(=O)N[C@H](CC(C)C)C(N)=O
Ki [2]: 640 nM

B8: Compound 13 (peptide)
peptide: {Nicotinoyl(6-F)}-Y[dE]C[Hyp][Tyr(3-Cl)]GLCYI[dQ]-NH2
modifications: disulfide 3-8
SMILES: CC[C@H](C)[C@H](NC(=O)[C@H](Cc1ccc(O)cc1)NC(=O)[C@@H]1CSSC[C@H](NC(=O)[C@@H](CCC(=O)O)NC(=O)[C@H](Cc2ccc(O)cc2)NC(=O)c2ccc(F)nc2)C(=O)N2C[C@H](O)C[C@H]2C(=O)N[C@@H](Cc2ccc(O)c(Cl)c2)C(=O)NCC(=O)N[C@@H](CC(C)C)C(=O)N1)C(=O)N[C@H](CCC(N)=O)C(N)=O
Ki [2]: 1250 nM

Continued, values first:

Kd [3]: < 600 nM
Ki [2]: 140 nM
B5: Compound 3 (peptide)
peptide: {Nicotinoyl(6-F)}-[dY][dE]C[Hyp][Tyr(3-Cl)]GLCHI[dL]-NH2
modifications: disulfide 3-8
SMILES: CC[C@H](C)[C@H](NC(=O)[C@H](Cc1c[nH]cn1)NC(=O)[C@@H]1CSSC[C@H](NC(=O)[C@@H](CCC(=O)O)NC(=O)[C@@H](Cc2ccc(O)cc2)NC(=O)c2ccc(F)nc2)C(=O)N2C[C@H](O)C[C@H]2C(=O)N[C@@H](Cc2ccc(O)c(Cl)c2)C(=O)NCC(=O)N[C@@H](CC(C)C)C(=O)N1)C(=O)N[C@H](CC(C)C)C(N)=O

Kd [3]: < 600 nM
Ki [2]: 180 nM
B6: Compound 4 (peptide)
peptide: {Nicotinoyl(6-F)}-Y[dE]C[Hyp][Tyr(3-Cl)]GLCHIQ-NH2
modifications: disulfide 3-8
SMILES: CC[C@H](C)[C@H](NC(=O)[C@H](Cc1c[nH]cn1)NC(=O)[C@@H]1CSSC[C@H](NC(=O)[C@@H](CCC(=O)O)NC(=O)[C@H](Cc2ccc(O)cc2)NC(=O)c2ccc(F)nc2)C(=O)N2C[C@H](O)C[C@H]2C(=O)N[C@@H](Cc2ccc(O)c(Cl)c2)C(=O)NCC(=O)N[C@@H](CC(C)C)C(=O)N1)C(=O)N[C@@H](CCC(N)=O)C(N)=O

Kd [3]: < 600 nM
Ki [2]: 70 nM
B9: Compound 2 (peptide)
peptide: {Nicotinoyl(6-F)}-[dY][dE]C[Hyp][Tyr(3-Cl)]GLCHIQ-NH2
modifications: disulfide 3-8
SMILES: CC[C@H](C)[C@H](NC(=O)[C@H](Cc1c[nH]cn1)NC(=O)[C@@H]1CSSC[C@H](NC(=O)[C@@H](CCC(=O)O)NC(=O)[C@@H](Cc2ccc(O)cc2)NC(=O)c2ccc(F)nc2)C(=O)N2C[C@H](O)C[C@H]2C(=O)N[C@@H](Cc2ccc(O)c(Cl)c2)C(=O)NCC(=O)N[C@@H](CC(C)C)C(=O)N1)C(=O)N[C@@H](CCC(N)=O)C(N)=O

Kd [3]: < 600 nM
Ki [2]: 580 nM
B10: Compound 7 (peptide)
peptide: {Nicotinoyl(6-F)}-Y[dE]C[Hyp][Tyr(3-Cl)]GLCYIQ-NH2
modifications: disulfide 3-8
SMILES: CC[C@H](C)[C@H](NC(=O)[C@H](Cc1ccc(O)cc1)NC(=O)[C@@H]1CSSC[C@H](NC(=O)[C@@H](CCC(=O)O)NC(=O)[C@H](Cc2ccc(O)cc2)NC(=O)c2ccc(F)nc2)C(=O)N2C[C@H](O)C[C@H]2C(=O)N[C@@H](Cc2ccc(O)c(Cl)c2)C(=O)NCC(=O)N[C@@H](CC(C)C)C(=O)N1)C(=O)N[C@@H](CCC(N)=O)C(N)=O

Kd [3]: < 600 nM
Ki [2]: 340 nM
B11: Compound 6 (peptide)
peptide: {Nicotinoyl(6-F)}-[dY][dE]C[Hyp][Tyr(3-Cl)]GLCYIQ-NH2
modifications: disulfide 3-8
SMILES: CC[C@H](C)[C@H](NC(=O)[C@H](Cc1ccc(O)cc1)NC(=O)[C@@H]1CSSC[C@H](NC(=O)[C@@H](CCC(=O)O)NC(=O)[C@@H](Cc2ccc(O)cc2)NC(=O)c2ccc(F)nc2)C(=O)N2C[C@H](O)C[C@H]2C(=O)N[C@@H](Cc2ccc(O)c(Cl)c2)C(=O)NCC(=O)N[C@@H](CC(C)C)C(=O)N1)C(=O)N[C@@H](CCC(N)=O)C(N)=O

Kd [3]: < 600 nM
Ki [2]: 230 nM
B12: Compound 5 (peptide)
peptide: {Nicotinoyl(6-F)}-Y[dE]C[Hyp][Tyr(3-Cl)]GLCHI[dQ]-NH2
modifications: disulfide 3-8
SMILES: CC[C@H](C)[C@H](NC(=O)[C@H](Cc1c[nH]cn1)NC(=O)[C@@H]1CSSC[C@H](NC(=O)[C@@H](CCC(=O)O)NC(=O)[C@H](Cc2ccc(O)cc2)NC(=O)c2ccc(F)nc2)C(=O)N2C[C@H](O)C[C@H]2C(=O)N[C@@H](Cc2ccc(O)c(Cl)c2)C(=O)NCC(=O)N[C@@H](CC(C)C)C(=O)N1)C(=O)N[C@H](CCC(N)=O)C(N)=O
